In the supplement of paper PMC6757056:
± gives the standard deviation of the averaged measurements.

B1: library; a variant is named by its letters at N, in order (parent)
chain: GCUGUCACCGGAAUACCAGCAUCGUCUUGAUGCCCUUGGAAGUCCGGUCUGAUGAGUCCNNNNNGGACGAAACAGC

Tests used:
theophylline [1] = variants of: B1; assay: FACS-Seq fitted mean relative fluorescence mCherry/BFP without ligand (log10 relative fluorescence); higher = higher reporter protein expression; details: HEK293T, ligand present: no
In short: (§1)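 HEK293T libraries were made by lentiviral transduction with a ribozyme-switch mCherry reporter and an EF1α-BFP marker, enriched, and incubated with or without ligand for 48 h. Cells were sorted into 6 mCherry/BFP bins, and each bin's genomic DNA was PCR-amplified, barcoded and run on MiSeq. Fluorescence was derived by normal fitting of the bin counts. The fitted log10(mCherry/BFP) mean was scaled to five spiked-in control ribozymes.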

theophylline [2] = variants of: B1; assay: normalized RNA/DNA level with ligand (relative to sTRSVctl = 100) (log10 (% of sTRSVctl)); higher = less ribozyme self-cleavage, higher mRNA level; details: ligand concentration (+) RNA-Seq: 5 mM, HEK293T, reporter: mCherry (pCS4076), ligand present: yes
In short: (§2)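 Ribozyme switch library plasmids with mCherry reporters (eGFP in certain ligand experiments) went into HEK293T cells at 4 µg per 6-well well. Where ligand was used, it was applied 1 h before transfection, and total RNA was extracted with EDTA 72 h later for reverse transcription, amplification, barcoding and sequencing. RNA level is the RNA-to-DNA read ratio normalized to a spiked-in non-cleaving sequence or to the leading sequences, then scaled and log-transformed. Scaling was ×100 with log10, the leading set comprised 25 sequences, and the cutoff was ≥100 DNA reads.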

theophylline [3] = variants of: B1; assay: normalized RNA/DNA level without ligand (relative to sTRSVctl = 100) (log10 (% of sTRSVctl)); higher = less ribozyme self-cleavage, higher mRNA level; details: HEK293T, reporter: mCherry (pCS4076), ligand present: no
In short: as §2

theophylline [4] = variants of: B1; assay: FACS-Seq fitted mean relative fluorescence mCherry/BFP with ligand (log10 relative fluorescence); ligand concentration (+) FACS-Seq: 1 mM; higher = higher reporter protein expression; details: HEK293T, ligand present: yes
In short: as §1

| Variant | FACS-Seq fitted mean (log10) (theophylline [1]) | normalized RNA/DNA level with ligand (log10) (theophylline [2]) | normalized RNA/DNA level without ligand (log10) (theophylline [3]) | FACS-Seq fitted mean (log10) (theophylline [4]) |
| --- | --- | --- | --- | --- |
| UUCCC | 1.02 ± 0.027 | 1.97 ± 0.04 | 1.99 ± 0.031 | 0.9913 ± 0.0095 |
| CGUGA | -0.0723 ± 0.18 | 1.97 ± 0.025 | 1.58 ± 0.054 | 0.221 ± 0.11 |
| UGCCA | 0.592 ± 0.11 | 1.9 ± 0.096 | 1.82 ± 0.068 | 0.481 ± 0.044 |
| UGCCC | 0.979 ± 0.077 | 2.01 ± 0.026 | 2.03 ± 0.043 | 0.875 ± 0.012 |
| UGCCG | 1.06 ± 0.058 | 2.04 ± 0.043 | 2.02 ± 0.055 | 0.883 ± 0.027 |
| UGCCU | 0.875 ± 0.16 | 2.08 ± 0.077 | 1.891 ± 0.007 | 0.867 ± 0.079 |
| UGGUG | 0.674 ± 0.065 | 2.04 ± 0.041 | 1.87 ± 0.1 | 0.661 ± 0.083 |
| UGGUC | 0.57045 ± 0.00034 | 1.984 ± 0.0062 | 1.95 ± 0.12 | 0.356 ± 0.084 |
| UGGUA | 0.0996 ± 0.099 | 1.946 ± 0.011 | 1.28 ± 0.11 | 0.69 ± 0.042 |
| UGGUU | 0.9379 ± 0.005 | 2.042 ± 0.011 | 1.846 ± 0.0051 | 1.01 ± 0.049 |
| AGUAA | 0.346 ± 0.083 | 1.89 ± 0.12 | 1.35 ± 0.13 | 0.781 ± 0.02 |
| AGUAC | 0.729 ± 0.04 | 1.997 ± 0.019 | 1.83 ± 0.068 | 0.749 ± 0.072 |
| AGUAG | 0.85 ± 0.075 | 1.97 ± 0.1 | 1.71 ± 0.034 | 0.8838 ± 0.0022 |
| AUCCG | 0.573 ± 0.011 | 1.92 ± 0.097 | 1.96 ± 0.014 | 0.591 ± 0.063 |
| AUCCA | 0.993 ± 0.031 | 2 ± 0.13 | 1.95 ± 0.1 | 0.788 ± 0.066 |
| AUAGC | 0.922 ± 0.023 | 1.94 ± 0.082 | 1.87 ± 0.12 | 0.9641 ± 0.0048 |
| AUAGG | 0.526 ± 0.084 | 1.994 ± 0.0048 | 1.84 ± 0.068 | 0.441 ± 0.063 |
| AUAGU | 0.0428 ± 0.058 | 2.04 ± 0.045 | 1.76 ± 0.038 | 0.179 ± 0.18 |
| AUAGA | 0.592 ± 0.06 | 1.958 ± 0.018 | 1.57 ± 0.15 | 0.972 ± 0.13 |
| UUACG | 1.08 ± 0.025 | 2.019 ± 0.0074 | 1.93 ± 0.029 | 1.02 ± 0.027 |
| UUACU | 1.05 ± 0.07 | 2.08 ± 0.052 | 1.93 ± 0.058 | 1.01 ± 0.18 |
| UUACC | 0.865 ± 0.28 | 2.02 ± 0.022 | 1.96 ± 0.095 | 0.847 ± 0.12 |
| CGGUA | 0.028 ± 0.083 | 1.894 ± 0.0076 | 1.3 ± 0.025 | 0.602 ± 0.0084 |
| CGGUC | 1.07 ± 0.037 | 1.98 ± 0.051 | 1.82 ± 0.076 | 1.13 ± 0.05 |

| Variant | FACS-Seq fitted mean (log10) (theophylline [1]) | normalized RNA/DNA level with ligand (log10) (theophylline [2]) | normalized RNA/DNA level without ligand (log10) (theophylline [3]) | FACS-Seq fitted mean (log10) (theophylline [4]) |
| --- | --- | --- | --- | --- |
| CGUUU | 0.252 ± 0.084 | 2.06 ± 0.11 | 1.53 ± 0.077 | 0.945 ± 0.041 |
| CGUUC | 0.959 ± 0.048 | 1.8643 ± 0.00065 | 1.75 ± 0.07 | 0.949 ± 0.067 |
| AGCUC | 0.692 ± 0.15 | 2.04 ± 0.2 | 1.9 ± 0.046 | 0.565 ± 0.047 |
| AGCUA | 0.662 ± 0.064 | 2.03 ± 0.037 | 1.76 ± 0.044 | 0.7922 ± 0.0018 |
| CGCCU | 0.291 ± 0.031 | 2.08 ± 0.074 | 1.78 ± 0.12 | 0.38 ± 0.021 |
| CGCCC | 0.615 ± 0.021 | 2.01 ± 0.14 | 2.02 ± 0.04 | 0.725 ± 0.098 |
| CGCUA | 0.353 ± 0.072 | 1.87 ± 0.069 | 1.48 ± 0.041 | 0.612 ± 0.076 |
| CGCUU | 0.746 ± 0.19 | 1.99 ± 0.087 | 1.62 ± 0.075 | 0.896 ± 0.11 |
| UGGCU | 1.01 ± 0.063 | 2.01 ± 0.022 | 1.948 ± 0.011 | 0.992 ± 0.099 |
| CUACU | 0.761 ± 0.11 | 1.96 ± 0.087 | 1.8 ± 0.019 | 0.924 ± 0.034 |
| CUACC | 0.996 ± 0.11 | 1.968 ± 0.015 | 1.96 ± 0.11 | 1.02 ± 0.03 |
| CUACA | 0.702 ± 0.027 | 2.031 ± 0.0063 | 1.84 ± 0.021 | 0.826 ± 0.11 |
| AGAUG | 0.533 ± 0.011 | 1.9309 ± 0.0011 | 1.803 ± 0.017 | 0.4899 ± 0.0023 |
| AGAUU | 0.511 ± 0.068 | 1.99 ± 0.12 | 1.736 ± 0.01 | 0.627 ± 0.07 |
| AGAUA | 0.67126 ± 0.00023 | 2.01 ± 0.027 | 1.61 ± 0.11 | 0.73474 ± 0.00057 |
| UUAUG | 0.732 ± 0.015 | 2.06 ± 0.071 | 1.907 ± 0.0097 | 0.821 ± 0.031 |
| UUAUU | 0.914 ± 0.092 | 1.96 ± 0.12 | 1.95 ± 0.11 | 0.942 ± 0.076 |
| UUAUC | 1.09 ± 0.15 | 2.04 ± 0.049 | 1.96 ± 0.16 | 1.19 ± 0.12 |
| UGCGC | 0.574 ± 0.085 | 2.04 ± 0.035 | 1.96 ± 0.15 | 0.522 ± 0.1 |
| UGCGU | 0.83 ± 0.044 | 1.97 ± 0.088 | 1.923 ± 0.018 | 0.761 ± 0.07 |
| UGCGA | 0.439 ± 0.02 | 1.9 ± 0.039 | 1.58 ± 0.06 | 0.659 ± 0.03 |
| GUACU | 0.8686 ± 0.0017 | 2 ± 0.044 | 1.93 ± 0.08 | 0.97 ± 0.03 |
| AGGAG | 0.642 ± 0.032 | 1.92 ± 0.022 | 1.73 ± 0.072 | 0.834 ± 0.045 |
| AGGAA | 0.0559 ± 0.0084 | 1.85 ± 0.12 | 1.17 ± 0.079 | 0.552 ± 0.029 |

| Variant | FACS-Seq fitted mean (log10) (theophylline [1]) | normalized RNA/DNA level with ligand (log10) (theophylline [2]) | normalized RNA/DNA level without ligand (log10) (theophylline [3]) | FACS-Seq fitted mean (log10) (theophylline [4]) |
| --- | --- | --- | --- | --- |
| AGGAC | 0.549 ± 0.067 | 1.97 ± 0.089 | 1.81 ± 0.12 | 0.721 ± 0.074 |
| UGAUC | 0.156 ± 0.012 | 1.88 ± 0.045 | 1.91 ± 0.099 | 0.331 ± 0.012 |
| UGAUA | 0.3741 ± 0.0021 | 1.955 ± 0.0019 | 1.42 ± 0.17 | 0.789 ± 0.084 |
| UGAUG | 0.912 ± 0.0092 | 2.005 ± 0.00081 | 1.91 ± 0.14 | 0.848 ± 0.11 |
| UGAUU | 0.448 ± 0.028 | 1.96 ± 0.071 | 1.7 ± 0.12 | 0.437 ± 0.11 |
| AUACA | 0.687 ± 0.07 | 1.98 ± 0.021 | 1.85 ± 0.12 | 0.796 ± 0.012 |
| AUACU | 0.617 ± 0.06 | 2.02 ± 0.038 | 1.79 ± 0.033 | 0.713 ± 0.032 |
| AUACG | 0.526 ± 0.063 | 2.0061 ± 0.0018 | 1.831 ± 0.0082 | 0.507 ± 0.02 |
| UGCAU | 1.25 ± 0.16 | 1.92 ± 0.078 | 1.853 ± 0.018 | 1.3 ± 0.1 |
| UGCAC | 0.938 ± 0.039 | 2.04 ± 0.11 | 2.01 ± 0.022 | 0.991 ± 0.051 |
| CGAUU | 0.31 ± 0.2 | 1.98 ± 0.13 | 1.51 ± 0.15 | 0.579 ± 0.022 |
| CGAUC | 0.533 ± 0.1 | 1.927 ± 0.016 | 1.84 ± 0.089 | 0.495 ± 0.065 |
| CGAUA | 0.099 ± 0.017 | 1.946 ± 0.014 | 1.21 ± 0.36 | 0.491 ± 0.0076 |
| AGGGC | 0.731 ± 0.092 | 1.95 ± 0.022 | 1.93 ± 0.094 | 0.756 ± 0.037 |
| AGGGA | 0.303 ± 0.0048 | 2.04 ± 0.079 | 1.48 ± 0.1 | 0.659 ± 0.029 |
| AGGGU | 0.635 ± 0.08 | 2.05 ± 0.073 | 1.74 ± 0.05 | 0.897 ± 0.059 |
| UUAAC | 0.885 ± 0.033 | 1.946 ± 0.0047 | 1.93 ± 0.042 | 0.858 ± 0.072 |
| UUAAU | 1.13 ± 0.062 | 1.9977 ± 0.0018 | 1.956 ± 0.013 | 1.07 ± 0.036 |
| UUAAA | 0.111 ± 0.099 | 1.895 ± 0.0096 | 1.26 ± 0.013 | 0.545 ± 0.078 |
| UUAAG | 0.769 ± 0.074 | 2.02 ± 0.033 | 1.855 ± 0.012 | 0.829 ± 0.086 |
| AGUCA | 0.8 ± 0.087 | 1.98 ± 0.14 | 1.73 ± 0.059 | 0.766 ± 0.027 |
| AGAGG | 0.93 ± 0.038 | 1.956 ± 0.018 | 1.8 ± 0.11 | 0.966 ± 0.08 |
| AGAGU | 0.387 ± 0.049 | 2.006 ± 0.008 | 1.58 ± 0.045 | 0.442 ± 0.022 |
| UGAGU | 0.6996 ± 0.0034 | 2.02 ± 0.17 | 1.86 ± 0.12 | 0.676 ± 0.013 |
